Among the data in the supplement of paper PMC9233669 are self-aminoacylation values, retold here.

Fewer inactive variants are shown than the library holds.

The subject of data set [1] is biotinyl-Phe-oxazolone. Nature of the data set: self-aminoacylation, catalytic enhancement (BFO) (fold over background); higher = more active; k-Seq, kA / k0A0; sequences stand for … in GGGAAUGGAUCCACAUCUACGAAUUC…UUCACUGCAGACUUGACGAAGCUG
Put shortly:
(§1)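 Mutagenized RNA pools (0.43 μM; 21-nt variable region) were treated with 2–1250 μM of each biotinyl-aminoacyl-oxazolone. Conditions were 50 μL HEPES/NaCl/KCl/MgCl2/CaCl2 buffer, 5% acetonitrile, pH 6.9–7.0, room temperature, 90 minutes. Catalytic enhancement, the median kA relative to the uncatalyzed rate, was derived from streptavidin capture, qPCR and Illumina sequencing.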

Data set [2] has as its system biotinyl-Ile-oxazolone. Nature of the data set: self-aminoacylation, catalytic enhancement (BIO) (fold over background); higher = more active; k-Seq, kA / k0A0; sequences stand for … in GGGAAUGGAUCCACAUCUACGAAUUC…UUCACUGCAGACUUGACGAAGCUG
The gist of the method:
as §1

The test system of data set [3] is biotinyl-Met-oxazolone. The experiment in a line: self-aminoacylation, catalytic enhancement (BMO) (fold over background); higher = more active; k-Seq, kA / k0A0; sequences stand for … in GGGAAUGGAUCCACAUCUACGAAUUC…UUCACUGCAGACUUGACGAAGCUG
The gist of the method:
as §1

Data set [4] concerns biotinyl-Val-oxazolone. The experiment in a line: self-aminoacylation, catalytic enhancement (BVO) (fold over background); higher = more active; k-Seq, kA / k0A0; sequences stand for … in GGGAAUGGAUCCACAUCUACGAAUUC…UUCACUGCAGACUUGACGAAGCUG
The gist of the method: as §1

Data set [5] deals with biotinyl-Leu-oxazolone. The experiment in a line: self-aminoacylation, catalytic enhancement (BLO) (fold over background); higher = more active; k-Seq, kA / k0A0; sequences stand for … in GGGAAUGGAUCCACAUCUACGAAUUC…UUCACUGCAGACUUGACGAAGCUG
The gist of the method: as §1

The subject of data set [6] is biotinyl-Trp-oxazolone. Nature of the data set: self-aminoacylation, catalytic enhancement (BWO) (fold over background); higher = more active; k-Seq, kA / k0A0; sequences stand for … in GGGAAUGGAUCCACAUCUACGAAUUC…UUCACUGCAGACUUGACGAAGCUG
The gist of the method:
as §1

Turning to “AUCCACCUAGGUCAUCGGGUG [Fam2.2 aminoacylation ribozyme variant]”, the self-aminoacylation came out at 240 in data set [1]; 18.4 in data set [2]; 32.1 in data set [3]; 17 in data set [4]; 42 in data set [5]; 25 in data set [6].

“AUCCACCUAGGUCGUCGGGUG [Fam2.2 aminoacylation ribozyme variant]”: the self-aminoacylation in data set [1] came to 9.53; in data set [2], 2.36; in data set [3] it was 2.62; in data set [4] it was 2.56; in data set [5], 3.5; in data set [6] it was 2.22.

For the sequence “AUCCAGCUAGGUCAUCGGGUG [Fam2.2 aminoacylation ribozyme variant]”, the self-aminoacylation was determined as 47.5 in data set [1]; 4.76 in data set [2]; 5.63 in data set [3]; 6.15 in data set [4]; 6.74 in data set [5]; 7.36 in data set [6].

For “AUCCGCCUAGGUCAUCGGGUG [Fam2.2 aminoacylation ribozyme variant]”, the self-aminoacylation in data set [1] was determined as 120; in data set [2] it was 10.3; in data set [3], 15.9; in data set [4] it was 10.1; in data set [5], 18.5; in data set [6] it was 16.4.

Consider “AUGACCCUGAUCAUCGAGUGA [Fam2.1 aminoacylation ribozyme variant]”, for which the self-aminoacylation in data set [1] came out at 19.5; in data set [2], 2.73; in data set [3], 5.56; in data set [4] it was 2.84; in data set [5], 5.85; in data set [6], 6.06.

In the case of “AUGACCCUGGCCAUCGAGUGA [Fam2.1 aminoacylation ribozyme variant]”, the self-aminoacylation in data set [1] is 32; in data set [2], 3.03; in data set [3], 5.04; in data set [4] it was 3.66; in data set [5], 7.68; in data set [6], 6.4.

Turning to “AUGACCCUGGUCAUAGAGUGA [Fam2.1 aminoacylation ribozyme variant]”, the self-aminoacylation in data set [1] is 46.6; in data set [2], 3.35; in data set [3], 7.12; in data set [4], 3.59; in data set [5], 6.95; in data set [6] it was 6.89.

For “AUGACCCUGGUCAUCGAGCGA [Fam2.1 aminoacylation ribozyme variant]”, the self-aminoacylation in data set [1] stood at 3.71; in data set [2], 2.2; in data set [3], 2.99; in data set [4] it was 2.31; in data set [5], 3.09; in data set [6] it was 2.48.

Consider “AUGACCCUGGUCAUCGAGUGA [Fam2.1 aminoacylation ribozyme variant]”, for which the self-aminoacylation in data set [1] is 451; in data set [2] it was 18.6; in data set [3], 58.9; in data set [4], 19.3; in data set [5], 55.8; in data set [6], 51.6.

In the case of “AUGACCCUGGUCAUCGAGUGC [Fam2.1 aminoacylation ribozyme variant]”, the self-aminoacylation in data set [1] is 17.4; in data set [2] it was 2.61; in data set [3], 7.15; in data set [4] it was 2.96; in data set [5] it was 6.92; in data set [6] it was 4.

Turning to “AUGACCCUGGUCAUCGAGUGG [Fam2.1 aminoacylation ribozyme variant]”, the self-aminoacylation in data set [1] came to 215; in data set [2], 7.48; in data set [3], 30; in data set [4], 8.22; in data set [5], 31; in data set [6], 20.9.

For “AUGACCCUGGUCAUCGGGUGA [Fam2.1 aminoacylation ribozyme variant]”, the self-aminoacylation in data set [1] stood at 571; in data set [2], 31.9; in data set [3] it was 90.6; in data set [4] it was 35.1; in data set [5] it was 99; in data set [6] it was 94.9.

As for “AUGACCCUGGUCAUGGAGUGA [Fam2.1 aminoacylation ribozyme variant]”, the self-aminoacylation in data set [1] turned out to be 26.2; in data set [2], 2.56; in data set [3], 4.69; in data set [4], 2.73; in data set [5], 4.81; in data set [6], 4.08.

Turning to “AUGACCCUGGUCUUCGAGUGA [Fam2.1 aminoacylation ribozyme variant]”, the self-aminoacylation stood at 30.4 in data set [1]; 2.9 in data set [2]; 5.04 in data set [3]; 2.95 in data set [4]; 6.24 in data set [5]; 6.19 in data set [6].

As to “AUGACCCUGUUCAUCGAGUGA [Fam2.1 aminoacylation ribozyme variant]”, the self-aminoacylation in data set [1] amounted to 17.7; in data set [2], 3.16; in data set [3], 4.75; in data set [4] it was 3.03; in data set [5], 5.72; in data set [6], 6.05.

Take “AUGAUCCUGGUCAUCGAGUGA [Fam2.1 aminoacylation ribozyme variant]”: the self-aminoacylation amounted to 14 in data set [1]; 4.83 in data set [2]; 9.84 in data set [3]; 4.44 in data set [4]; 9.67 in data set [5]; 9.32 in data set [6].

“AUGCACCUACGUCAUCGGGUG [Fam2.2 aminoacylation ribozyme variant]”: the self-aminoacylation in data set [1] stood at 60.7; in data set [2], 3.57; in data set [3], 7.02; in data set [4] it was 4.21; in data set [5], 7.54; in data set [6] it was 6.56.

Turning to “AUGCACCUAGCUCAUCGGGUG [Fam2.2 aminoacylation ribozyme variant]”, the self-aminoacylation in data set [1] was determined as 3.64; in data set [2] it was 1.62; in data set [3] it was 1.57; in data set [4], 2.4; in data set [5], 2.11; in data set [6], 2.72.

As to “AUGCACCUAGGUCAUCCGGUG [Fam2.2 aminoacylation ribozyme variant]”, the self-aminoacylation is 57.6 in data set [1]; 4.42 in data set [2]; 6.24 in data set [3]; 4.06 in data set [4]; 7.51 in data set [5]; 7.68 in data set [6].

Turning to “AUGCACCUAGGUCAUCGGAUG [Fam2.2 aminoacylation ribozyme variant]”, the self-aminoacylation in data set [1] was 0.614; in data set [2] it was 1.26; in data set [3] it was 0.919; in data set [4] it was 1.23; in data set [5], 1.11; in data set [6], 1.25.

In the case of “AUGCACCUAGGUCAUCGGGGG [Fam2.2 aminoacylation ribozyme variant]”, the self-aminoacylation turned out to be 7.48 in data set [1]; 2.4 in data set [2]; 2.72 in data set [3]; 2.33 in data set [4]; 2.64 in data set [5]; 3.3 in data set [6].

For the sequence “AUGCACCUAGGUCAUCGGGUA [Fam2.2 aminoacylation ribozyme variant]”, the self-aminoacylation came to 42 in data set [1]; 6.6 in data set [2]; 10.2 in data set [3]; 5.82 in data set [4]; 12.9 in data set [5]; 9.92 in data set [6].

Take “AUGCACCUAGGUCAUCGGGUG [Fam2.2 aminoacylation ribozyme variant]”: the self-aminoacylation was found to be 30.1 in data set [1]; 4.06 in data set [2]; 5.65 in data set [3]; 4.11 in data set [4]; 6.25 in data set [5]; 6.01 in data set [6].
